# Measurements as given in paper PMC4267639, “The Mtr4 ratchet helix and arch domain both function to promote RNA unwinding”.
# What was measured:
# Test in all cases: fluorescence anisotropy
# Conditions in all cases: FA: 40 mM MOPS pH 6.5, 100 mM NaCl, 0.5 mM MgCl2, 5% glycerol, 0.01% NP-40 substitute, 2 mM DTT, 60 nM RNA, 30 C; EMSA conditions not in material
# [1] = target: T1, Mtr4 E1033A-archless E1033A (Saccharomyces cerevisiae) (UniProt P47047)
# T1 sequence: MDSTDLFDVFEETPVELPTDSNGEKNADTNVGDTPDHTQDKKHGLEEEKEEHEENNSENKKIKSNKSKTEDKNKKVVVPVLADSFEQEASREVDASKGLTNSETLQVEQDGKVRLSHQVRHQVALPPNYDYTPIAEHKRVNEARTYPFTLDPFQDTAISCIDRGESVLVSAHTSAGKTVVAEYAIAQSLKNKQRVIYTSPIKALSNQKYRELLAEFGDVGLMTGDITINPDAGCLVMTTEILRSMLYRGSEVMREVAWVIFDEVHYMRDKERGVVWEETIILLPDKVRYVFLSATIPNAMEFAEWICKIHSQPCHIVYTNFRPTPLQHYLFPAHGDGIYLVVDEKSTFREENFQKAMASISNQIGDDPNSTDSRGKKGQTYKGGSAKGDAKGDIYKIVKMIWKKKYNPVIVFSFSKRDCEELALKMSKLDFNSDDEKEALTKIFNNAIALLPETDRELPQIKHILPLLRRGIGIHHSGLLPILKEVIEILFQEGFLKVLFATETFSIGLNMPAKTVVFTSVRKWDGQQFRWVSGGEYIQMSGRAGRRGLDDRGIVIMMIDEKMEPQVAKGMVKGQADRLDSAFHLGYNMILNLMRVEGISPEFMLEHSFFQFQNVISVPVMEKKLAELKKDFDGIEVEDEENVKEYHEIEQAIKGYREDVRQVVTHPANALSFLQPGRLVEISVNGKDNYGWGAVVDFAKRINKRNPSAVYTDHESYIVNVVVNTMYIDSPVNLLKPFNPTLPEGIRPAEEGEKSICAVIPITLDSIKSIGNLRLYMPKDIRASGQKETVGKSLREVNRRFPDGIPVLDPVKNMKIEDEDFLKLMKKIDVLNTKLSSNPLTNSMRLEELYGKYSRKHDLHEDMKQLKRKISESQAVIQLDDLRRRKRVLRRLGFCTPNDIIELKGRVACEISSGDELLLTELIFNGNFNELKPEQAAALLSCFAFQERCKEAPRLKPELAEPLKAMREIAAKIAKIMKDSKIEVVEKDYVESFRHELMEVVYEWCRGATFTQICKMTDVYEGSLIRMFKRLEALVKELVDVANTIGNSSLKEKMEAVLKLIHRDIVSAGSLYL
# [2] = target: T2, Mtr4 R1030A-archless R1030A (Saccharomyces cerevisiae) (UniProt P47047)
# T2 sequence: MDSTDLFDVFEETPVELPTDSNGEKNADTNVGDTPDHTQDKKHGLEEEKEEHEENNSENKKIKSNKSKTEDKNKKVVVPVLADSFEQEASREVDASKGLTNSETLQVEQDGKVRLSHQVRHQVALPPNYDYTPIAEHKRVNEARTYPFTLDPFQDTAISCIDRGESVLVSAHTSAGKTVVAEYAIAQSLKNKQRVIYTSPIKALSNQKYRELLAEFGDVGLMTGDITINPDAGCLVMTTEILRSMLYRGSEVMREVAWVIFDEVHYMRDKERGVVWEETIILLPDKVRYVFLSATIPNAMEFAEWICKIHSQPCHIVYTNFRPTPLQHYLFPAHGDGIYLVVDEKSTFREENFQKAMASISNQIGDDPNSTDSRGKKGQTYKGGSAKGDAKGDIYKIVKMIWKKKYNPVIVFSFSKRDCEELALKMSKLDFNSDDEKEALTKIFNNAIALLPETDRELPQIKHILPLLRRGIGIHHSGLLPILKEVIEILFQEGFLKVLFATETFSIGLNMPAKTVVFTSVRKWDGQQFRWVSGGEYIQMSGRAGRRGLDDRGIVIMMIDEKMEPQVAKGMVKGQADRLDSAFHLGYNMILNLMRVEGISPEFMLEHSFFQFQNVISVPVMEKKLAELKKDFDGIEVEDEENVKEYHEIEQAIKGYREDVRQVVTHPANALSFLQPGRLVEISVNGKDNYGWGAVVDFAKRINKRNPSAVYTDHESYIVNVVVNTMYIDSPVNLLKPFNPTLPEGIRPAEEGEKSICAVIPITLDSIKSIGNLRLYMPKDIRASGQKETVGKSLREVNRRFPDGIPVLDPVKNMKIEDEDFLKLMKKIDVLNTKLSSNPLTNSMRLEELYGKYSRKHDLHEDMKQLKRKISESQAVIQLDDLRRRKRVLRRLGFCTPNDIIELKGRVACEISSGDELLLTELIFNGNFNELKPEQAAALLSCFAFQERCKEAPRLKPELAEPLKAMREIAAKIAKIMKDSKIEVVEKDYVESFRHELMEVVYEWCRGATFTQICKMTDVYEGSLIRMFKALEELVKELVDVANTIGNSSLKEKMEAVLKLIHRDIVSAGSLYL
# [3] = target: T3, Mtr4 archless (Saccharomyces cerevisiae) (UniProt P47047)
# T3 sequence: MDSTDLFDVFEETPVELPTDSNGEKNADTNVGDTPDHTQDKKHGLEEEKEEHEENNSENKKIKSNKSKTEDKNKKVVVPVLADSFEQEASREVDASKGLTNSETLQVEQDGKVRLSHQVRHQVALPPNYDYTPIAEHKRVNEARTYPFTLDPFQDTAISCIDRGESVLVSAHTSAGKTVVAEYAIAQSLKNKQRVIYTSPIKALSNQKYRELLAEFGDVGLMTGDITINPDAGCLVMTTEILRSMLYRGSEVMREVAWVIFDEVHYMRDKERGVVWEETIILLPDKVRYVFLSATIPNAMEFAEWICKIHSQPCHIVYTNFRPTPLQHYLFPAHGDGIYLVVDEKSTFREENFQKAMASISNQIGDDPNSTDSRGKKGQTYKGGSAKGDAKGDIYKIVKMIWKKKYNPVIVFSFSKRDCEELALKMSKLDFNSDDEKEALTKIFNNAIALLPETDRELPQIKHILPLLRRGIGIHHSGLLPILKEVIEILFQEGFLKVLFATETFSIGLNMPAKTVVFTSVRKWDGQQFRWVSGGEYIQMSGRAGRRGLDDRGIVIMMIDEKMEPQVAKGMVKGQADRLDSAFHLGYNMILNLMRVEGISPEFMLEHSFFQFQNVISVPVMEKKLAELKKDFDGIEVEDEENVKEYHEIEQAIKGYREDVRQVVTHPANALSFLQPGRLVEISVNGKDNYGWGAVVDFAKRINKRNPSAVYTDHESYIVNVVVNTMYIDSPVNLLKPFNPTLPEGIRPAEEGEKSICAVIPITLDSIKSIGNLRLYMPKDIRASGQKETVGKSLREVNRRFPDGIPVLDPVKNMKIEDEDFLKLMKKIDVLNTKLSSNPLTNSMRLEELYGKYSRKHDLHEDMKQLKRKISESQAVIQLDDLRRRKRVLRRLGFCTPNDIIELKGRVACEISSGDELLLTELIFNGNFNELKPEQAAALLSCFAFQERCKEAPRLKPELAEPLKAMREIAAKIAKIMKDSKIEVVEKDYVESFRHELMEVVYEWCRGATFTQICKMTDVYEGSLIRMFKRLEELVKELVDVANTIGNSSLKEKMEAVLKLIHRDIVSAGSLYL
sequence,measurement,setting,value
"GCGUCUUUACGGUGCUUAAAAA / AGCACCGUAAAGACGC [poly(A) substrate R22A/R16, fluorescein]",Kd,[1],4.8 µM
same,Kd,[2],> 10 µM
same,Kd,[3],4.5 µM
